In article PMC4183622:
Each block holds one substance with its values, some of them ahead of it.

Legend:
[1] = biological target: Tr3DCatch1 (chimeric SpyAvidin tetramer of three core traptavidin subunits and one Dead streptavidin-SpyCatcher subunit) (UniProt P22629); assay: gel shift on SDS-PAGE of unboiled samples, Coomassie staining; SpyAvidin tetramer incubated with the ligand for 1 h at room temperature in PBS; the SpyTag/SpyCatcher link is a covalent isopeptide bond
[2] = biological target: Tr (core traptavidin), homotetramer Tr4; assay: mixed refolding, ion-exchange chromatography and SDS-PAGE with or without boiling; subunits refolded from dissolved inclusion bodies (alone or mixed) by dilution into PBS; tetramers separated on Q-HP with a NaCl gradient in 20 mM Tris-HCl pH 8.0; tetramers stay assembled on SDS-PAGE unless boiled
[3] = biological target: Tre (core traptavidin with a C-terminal hexaglutamate tag), homotetramer Tre4; assay: as above

Substance: KTag-AffiHER2-SpyTag (SpyTag-linked affibody against HER2)
stoichiometry N [1]: 1

stoichiometry N [2]: 4
Substance: Tr (core traptavidin), homotetramer Tr4 (complex)

stoichiometry N [3]: 4
Substance: Tre (core traptavidin with a C-terminal hexaglutamate tag), homotetramer Tre4 (complex)
